{"source": "the nanobody polyreactivity screen of Harvey et al. (2022)", "data": [{"test": "yeast display, Sf9 membrane polyspecificity reagent, FACS + sequencing; frameworks hold sequencing errors", "procedure,_shortened": "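A synthetic nanobody library was expressed on Saccharomyces cerevisiae BJ5465 by galactose induction for 36–48 hours. The library was stained for 1 hour at 4 °C with 10% biotinylated, detergent-solubilized Sf9 membrane reagent and enriched with streptavidin microbeads before FACS. Low and high (top ~1%) gates were set on anti-HA fluorescence for expression and streptavidin fluorescence for reagent binding, and each polyreactivity label reflects the gate of origin.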", "values": [{"sequence": "QVQLVESGGGLVKAGGSLRLTCAASGRTFGDNAMVWYRQATGKEMELVAAIRWGGGSTYYADSVKGRFTISRDNAKNTVFLQMNRLKPEDTAVYYCAKDDWDIALVHGEYDYWGQGTQVTVSS", "polyreactivity (PSR sort gate)": "low polyreactivity"}, {"sequence": "QVQLVESGGGLVKAGSSLRLSCAASGSIFLYNAMGWYRQAPGKERELVAVINGRGGTYYADSVKGRFTISRDNAKNTVYLQMNSLKPEDNSVYYCATGYPPSAWYDSVRFEDRDSWGQCTQVTVSS", "polyreactivity (PSR sort gate)": "low polyreactivity"}, {"sequence": "QVQLVESGGGLVKAVGSLRLSCAASGINLIRYVMGLYRQAPGKERELVAAISGSGGRTYYADSVKGRFTISRDNAKTTVDLQMNSLKPEDTAVYYCAAVSFRTTHGEYDYWGQGTQVTVSS", "polyreactivity (PSR sort gate)": "low polyreactivity"}, {"sequence": "QVQLVESGGGLVKSGGSLRLSCAASGGTFKPNVMGWYIQAPGKERELVAAITSGGSTYYADSVKGRFTISRDNAKNTVYLQMNSLKPEDTAVYYCAASSLRRYGYNYWGQVTQVTVSS", "polyreactivity (PSR sort gate)": "high polyreactivity"}, {"sequence": "QVQLVESGGGLVLAGGSLRLSCAASEFIFARNGMGWYIQAPGKERELVAAITKSGSTYADSVKGRFTISRDNAKNTVYLQMNSLKPEDTAVYYCNKDPGNVSSFTGGGYWGQGTQVTVSS", "polyreactivity (PSR sort gate)": "low polyreactivity"}, {"sequence": "QVQLVESGGGLVLAGGSLRLSCAASGGIYTTYAMGWYREAPGKERELVAAISRSGGSTYYADSVKGRFTISRDNAKNTVYLQMNSLKPDDTAVYYCAADQYMCRAWRGRVYYWGQGTQVTVSS", "polyreactivity (PSR sort gate)": "high polyreactivity"}, {"sequence": "QVQLVESGGGLVLAGGSLRLSCAASGRIFGTNAMGWYRQAPGKERELVAAISLSGGRTYADSVKGRFTISRDNAKNTVYLQMNSLKPEDTAVYYCNADSAGITRSRSELDYWGQGTQVTVSS", "polyreactivity (PSR sort gate)": "low polyreactivity"}, {"sequence": "QVQLVESGGGLVLAGGSLRLSCAASGRTFGIYAMGWYRQAPGKEREIVAAISWSGTSTHYADSVKGRFTISRDNAKNTVYLQMNSLKPEDTAVYYCAAAKTGRGSGTTGFGYWGQGTQVTVSS", "polyreactivity (PSR sort gate)": "high polyreactivity"}, {"sequence": "QVQLVESGGGLVLAGGSLRLSCAASGSILEGYVMGWYRQAPGKERELVAAISRGGGSTYYADSVKGRFTISRDNAKNTVYLQMNSLKPEDTAVYYCAARFAASYYWGQGTQVTVSS", "polyreactivity (PSR sort gate)": "high polyreactivity"}, {"sequence": "QVQLVESGGGLVLAGGSLRLSCAASGSILYYNAMGWYRQAPVKERELVAAITLDGASTYYSDSVKGLFTISRDNAKNTVYLQMNSLKPEDTAGYYCAADYAYWLSGYDYWGQGSQVTVSS", "polyreactivity (PSR sort gate)": "low polyreactivity"}, {"sequence": "QVQLVESGGGLVLAGGSLRLSCAASGSTFARNAMGWYRHAPGKERELVAAISWNGGRTYYADSVKGRFTISRDNAKNTVYLQMNSLKPEDTAVYYCAAKYVKDYWSDFDYWGQGTQVTVSS", "polyreactivity (PSR sort gate)": "high polyreactivity"}, {"sequence": "QVQLVESGGGLVLAGGSLRLSCAASGSTFEYNAMGWYRPAPGKERELVASSTNYADSVKGRFTISRDNAKNTVSLQRNSLKPEDTAVNYSAREQGVNRNHDYWGQGTQVTVSS", "polyreactivity (PSR sort gate)": "low polyreactivity"}, {"sequence": "QVQLVESGGGLVLAGGSLRLSCASSGRTFPSYAKGWYRQAPGKERELVAAITRGGSTNYADSVKGRFTISRDNAKNTVYLQMNSLKPEDTAVYYCAAARWRWQLARDDYWGQGTQVTVSS", "polyreactivity (PSR sort gate)": "high polyreactivity"}, {"sequence": "QVQLVESGGGLVLAGGSLRLSSAASGFTFSPYAMGWYRQAPGKERELVPAISASGGRTYYADSVKGRFTISRDYAKNTVYLQMNSLKPEDTAVYYCAAKLYDSGGRYWYDYWGQGTQVTVSS", "polyreactivity (PSR sort gate)": "high polyreactivity"}, {"sequence": "QVQLVESGGGLVNAGGSLRLSCAASGITFWGYAMGWYRQAPGKERELVAAITSGGTTYYADSVKGRFTISRDNAKNTVYLQMNSLKPEDTAVYYCNARYPSADDWGQGTQVTVSS", "polyreactivity (PSR sort gate)": "high polyreactivity"}, {"sequence": "QVQLVESGGGLVPAGGSLRLICAGSAFTFRSYAIGWYRQAPGQERELVAAISLGGTSTYYADSVKGRFTISRDNAKNTVYLQMNSLKPEDTAVYSCAARSYGHYGYWGQGTQVTVSS", "polyreactivity (PSR sort gate)": "high polyreactivity"}, {"sequence": "QVQLVESGGGLVPAGGSLRLSCAASGFIFVTNGMGWYRQAPGKERELVAAITDNGGSTYYADSGKGRFTISRDNAKNTVYLQMNSLKPEDTAVYYCNADRVVGPYDGYDYWGQGTQVTVSS", "polyreactivity (PSR sort gate)": "low polyreactivity"}, {"sequence": "QVQLVESGGGLVPAGGSLRLSCAASGFTFSGYAMGWYRQAPGKERELVAAITRRGGSTYYADSVKGRFTISRDNAKNTVYLQMNSLKPEDTAVYYCAADSGYPWELDYWGQGTQVTVSS", "polyreactivity (PSR sort gate)": "low polyreactivity"}, {"sequence": "QVQLVESGGGLVPAGGSLRLSCAASGFTFTRYAMGWYRQARGKERELVAAISWNGGSTYYADSVKGRFTISRDNAKKTVYLQMNSLKPEDTAVYYCAVRFKYQWSNFGYWGQGTQVTVSS", "polyreactivity (PSR sort gate)": "high polyreactivity"}, {"sequence": "QVQLVESGGGLVPAGGSLRLSCAASGLTFYYYAMGWSRQAPGKERELVAGISGSDGSTYYADSVKGRFTISRDNAKNTVYLQMNSLKPEDTAVYYFAAEYYYPWPLYYITDGIYDMYYWGQGTQVTVSS", "polyreactivity (PSR sort gate)": "low polyreactivity"}, {"sequence": "QVQLVESGGGLVPAGGSLRLSCAASGRIFYYYAMGWYRQAPGKERELVAAISSSGGSTYYADSVKGRFTISRDNAKKTVYLQMNSLKPEDTAVYYCAKRYALSGYYRLYDYWGQGTQVTVSS", "polyreactivity (PSR sort gate)": "high polyreactivity"}, {"sequence": "QVQLVESGGGLVPAGGSLRLSCAASGSIFGFYAMGWYRQSPGKERELVAGISYGDSSTYYADSVKGSFTISRDNAKNTVYLQMNSLKPEDTAVYYCAAGHRQKYNWGRYDYWGQGTQVTVSS", "polyreactivity (PSR sort gate)": "low polyreactivity"}, {"sequence": "QVQLVESGGGLVPAGGSLRLSCAASGSIFLAYAMGWYRQAPGKERELVAAITSIDGITSYADSVKGRFTISRDNAKNTVYLQMNSLTPEDTAVSYCAAPDGHWIRQWDTFEYWGQGTQVTVSS", "polyreactivity (PSR sort gate)": "low polyreactivity"}, {"sequence": "QVQLVESGGGLVPAGGSLRLSCAASGSIFTNAMGWYRQAPGKERELVAAIDANAGDTHYADSVKGRFTISRDNAKNTVYLQMNSLKPEDTAVYSCNADVTERLWTGEDDYWGQGTQVTVSS", "polyreactivity (PSR sort gate)": "low polyreactivity"}, {"sequence": "QVQLVESGGGLVPAGGSLRLSCAASGSIFVQNAMGWYRQAPGKERELVAVINSGDSTNYADSVKGRFTISRDNAKNTVYLQMNSLKPEDTAVYYCNADVSYTSEDQRALFTNVYYWGQGTQVTVSS", "polyreactivity (PSR sort gate)": "low polyreactivity"}, {"sequence": "QVQLVESGGGLVPAGGSLRLSCAASGYTFYFYAMGWYRQAPGKERELVAAITGGGTTSYADSVKGRFTISRDNAKNTVYLQMNSLKPEDTADSYCNVLFADKSDYWGQATQVTVSS", "polyreactivity (PSR sort gate)": "low polyreactivity"}, {"sequence": "QVQLVESGGGLVPAGGSLRLSCASSGITFRVYVMGWYRQAPGKESELVAPIDDNGGSTYYADSVKGRFTISRDNAKNTVYLQMNSLKPEDTAVYYCAKAIVYSLLEYGWVDYDDWGQGTQLTVSS", "polyreactivity (PSR sort gate)": "low polyreactivity"}, {"sequence": "QVQLVESGGGLVPARGSLRLSWAASGSTFSLYAMGWYRQAPGKERELVAAISWSGGNTYYADSVKGRFTISRDNAKNTVYLQMNSLKPEDTAVYYCAAEGKTFHRYYLYSYDYWGQGTQVTVSS", "polyreactivity (PSR sort gate)": "high polyreactivity"}, {"sequence": "QVQLVESGGGLVPSGGSLRLSCAASGRIFTSNAMGWYRQAPGKERELVAAISKSGGRTYYADSVKGRFTISRDNAKNTVYLQMNSLKPEETAVYYFAKDNFWGQGTQVTLSS", "polyreactivity (PSR sort gate)": "high polyreactivity"}, {"sequence": "QVQLVESGGGLVQAAASLRLSCAAYGITFNSYVMGWSRQAPGKERELVAVISRGGGITYYADSVKGRFTISRDNAKNTVYLQMNSLKPEDTAVYYCAADHTHVYVLYYNDNYWGQGTQVTVSS", "polyreactivity (PSR sort gate)": "high polyreactivity"}, {"sequence": "QVQLVESGGGLVQAAGILRLSCAASGFIVVRNAMGWYRQAPGKERELVAAISAIGSSTYYADSVKGRFTISRDNAKNTVYLQLNSLKPEDTAVYYCAASGSRVSERSPTRLDYYCGQGTQVTVSS", "polyreactivity (PSR sort gate)": "high polyreactivity"}, {"sequence": "QVQLVESGGGLVQAAGILRLSCAASGSIFVTNAKGWYRQAPGKERELVAAISSGGNTNYADSVKGRFTISRDNAKNTVYLQINSLKPVDTAVYYCAKDPDKVDSVDMDYWGHGTQVTVSS", "polyreactivity (PSR sort gate)": "low polyreactivity"}]}]}
